The numbers were not newly measured in PMC5012295, which cites them from elsewhere.

As usually defined, the pKd is the Kd on a negative log10 scale, so that one unit is a factor of ten.

This data set has as its target Complement C4b (Homo sapiens) (UniProt P0C0L4). Put plainly: AlphaScreen. For orientation: Bead proximity is the source of the signal in Alpha formats.

pKd: −log10 of the molar value.

UniProt P0C0L4, sequence (P0C0L4 20-675, chain 1 of 2): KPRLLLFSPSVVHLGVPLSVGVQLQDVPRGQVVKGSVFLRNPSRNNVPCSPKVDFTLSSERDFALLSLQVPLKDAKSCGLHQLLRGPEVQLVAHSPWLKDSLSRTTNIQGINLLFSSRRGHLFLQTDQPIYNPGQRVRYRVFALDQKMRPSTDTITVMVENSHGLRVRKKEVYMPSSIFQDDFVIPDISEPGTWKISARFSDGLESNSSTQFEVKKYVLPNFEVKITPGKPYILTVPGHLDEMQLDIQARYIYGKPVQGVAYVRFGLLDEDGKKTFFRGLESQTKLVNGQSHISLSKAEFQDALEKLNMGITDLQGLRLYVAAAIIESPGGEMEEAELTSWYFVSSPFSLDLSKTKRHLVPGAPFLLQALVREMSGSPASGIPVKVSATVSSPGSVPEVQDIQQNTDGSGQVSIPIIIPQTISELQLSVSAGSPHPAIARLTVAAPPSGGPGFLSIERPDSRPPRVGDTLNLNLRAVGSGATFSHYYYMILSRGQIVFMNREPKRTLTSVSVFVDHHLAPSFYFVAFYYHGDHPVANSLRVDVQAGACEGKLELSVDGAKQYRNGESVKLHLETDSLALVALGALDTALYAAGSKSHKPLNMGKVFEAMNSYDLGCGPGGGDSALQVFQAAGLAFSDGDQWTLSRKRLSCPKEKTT
UniProt P0C0L4, sequence (P0C0L4 20-675, chain 2 of 2): as the sequence (P0C0L4 20-675, chain 1 of 2) above

As to Eap (from UniProt Q99QS1), the pKd is 6.73. As for Eap34 domains 3-4 (from UniProt Q99QS1), the pKd was 6.28.
